Data set [1] deals with the molecule itself. In words: non-reducing SDS-PAGE with immunoblot.
Data set [2] concerns the molecule itself. The experiment in a line: non-reducing SDS-PAGE with Coomassie staining + mass spectrometry of the bands.

B1: his-GB1-tagged C-domain of CRT_(Del52) (domain or fragment, human)
chain: MKDKQDEEQRTRRMMRTKMRMRRMRRTRRKMRRKMSPARPRTSCREACLQGWTEA
Consider B1, for which, in data set [1], the “stoichiometry N” value is 2.

B2: FLAG-His-tagged full-length CRT_(Del52), purified (natural protein, human)
chain: EPAVYFKEQFLDGDGWTSRWIESKHKSDFGKFVLSSGKFYGDEEKDKGLQTSQDARFYALSASFEPFSNKGQTLVVQFTVKHEQNIDCGGGYVKLFPNSLDQTDMHGDSEYNIMFGPDICGPGTKKVHVIFNYKGKNVLINKDIRCKDDEFTHLYTLIVRPDNTYEVKIDNSQVESGSLEDDWDFLPPKKIKDPDASKPEDWDERAKIDDPTDSKPEDWDKPEHIPDPDAKKPEDWDEEMDGEWEPPVIQNPEYKGEWKPRQIDNPDYKGTWIHPEIDNPEYSPDPSIYAYDNFGVLGLDLWQVKSGTIFDNFLITNDEAYAEEFGNETWGVTKAAEKQMKDKQDEEQRTRRMMRTKMRMRRMRRTRRKMRRKMSPARPRTSCREACLQGWTEA
In the case of B2, the “stoichiometry N” value in data set [2] is 2.

One may read the stoichiometry N as a count of units in the complex or per binding partner.
